B1: MMP1 (parent)
chain: YTPDLPRADVDHAIEKAFQLWSNV
B2: HDAC6 (parent)
chain: YVHHQALLDVKNIAHQNKFGEDMP

Variants of: B1
Test: protein stability index of a GFP-peptide fusion (GPS, HEK-293T) (PSI 1-6); higher = more stable
Details: c terminus: a fixed tail appended
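Also: lentivirally expressed fusions sorted by FACS into six bins by GFP to DsRed ratio, PSI derived from sequencing read proportions per bin multiplied by bin number.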

Variant | protein stability index
YTPDPPRADVDHAIEKAFQLWSNV [L5P] | 1.81
YTPDMPRADVDHAIEKAFQLWSNV [L5M] | 2.12
YTPDKPRADVDHAIEKAFQLWSNV [L5K] | 1.91
YTPDTPRADVDHAIEKAFQLWSNV [L5T] | 2.02
YTPDQPRADVDHAIEKAFQLWSNV [L5Q] | 2.07
YTPDIPRADVDHAIEKAFQLWSNV [L5I] | 2.1
YTPDHPRADVDHAIEKAFQLWSNV [L5H] | 2.2
YTPDAPRADVDHAIEKAFQLWSNV [L5A] | 2.11
YTPDDPRADVDHAIEKAFQLWSNV [L5D] | 2.34
YTPDNPRADVDHAIEKAFQLWSNV [L5N] | 1.92
YTPDSPRADVDHAIEKAFQLWSNV [L5S] | 2.05
YTPKLPRADVDHAIEKAFQLWSNV [D4K] | 2.38
YTPQLPRADVDHAIEKAFQLWSNV [D4Q] | 2.62
YTPSLPRADVDHAIEKAFQLWSNV [D4S] | 2.35
YTPWLPRADVDHAIEKAFQLWSNV [D4W] | 1.94
YTPTLPRADVDHAIEKAFQLWSNV [D4T] | 3.69
YTPLLPRADVDHAIEKAFQLWSNV [D4L] | 3.1
YTPCLPRADVDHAIEKAFQLWSNV [D4C] | 1.69
YTPNLPRADVDHAIEKAFQLWSNV [D4N] | 2.56
YTPILPRADVDHAIEKAFQLWSNV [D4I] | 2.75
YTPALPRADVDHAIEKAFQLWSNV [D4A] | 1.75
YTPPLPRADVDHAIEKAFQLWSNV [D4P] | 1.99
YTPYLPRADVDHAIEKAFQLWSNV [D4Y] | 3.17
YTPHLPRADVDHAIEKAFQLWSNV [D4H] | 2.28
YTPELPRADVDHAIEKAFQLWSNV [D4E] | 1.4
YTPVLPRADVDHAIEKAFQLWSNV [D4V] | 3.17
YTPGLPRADVDHAIEKAFQLWSNV [D4G] | 2.16
YTPMLPRADVDHAIEKAFQLWSNV [D4M] | 2.23
YTPRLPRADVDHAIEKAFQLWSNV [D4R] | 2.52
YTPFLPRADVDHAIEKAFQLWSNV [D4F] | 2.54

Variants of: B2
Test: as above
Details: c terminus: a fixed tail appended

Variant | protein stability index
YVHHQALLDVKNIAHQNKFGEAMP [D22A] | 1.67
YVHHQALLDVKNIAHQNKFGEEMP [D22E] | 1.69
YVHHQALLDVKNIAHQNKFGESMP [D22S] | 2.48
YVHHQALLDVKNIAHQNKFGECMP [D22C] | 2.63
YVHHQALLDVKNIAHQNKFGETMP [D22T] | 1.86
YVHHQALLDVKNIAHQNKFGEWMP [D22W] | 2.14
YVHHQALLDVKNIAHQNKFGEMMP [D22M] | 1.68
YVHHQALLDVKNIAHQNKFGEFMP [D22F] | 1.57
YVHHQALLDVKNIAHQNKFGEQMP [D22Q] | 1.76
YVHHQALLDVKNIAHQNKFGERMP [D22R] | 1.73
YVHHQALLDVKNIAHQNKFGEHMP [D22H] | 2.4
YVHHQALLDVKNIAHQNKFGEPMP [D22P] | 2.21
YVHHQALLDVKNIAHQNKFGEKMP [D22K] | 2.09
YVHHQALLDVKNIAHQNKFGEVMP [D22V] | 1.5
YVHHQALLDVKNIAHQNKFGELMP [D22L] | 2.17
YVHHQALLDVKNIAHQNKFGENMP [D22N] | 2.31
YVHHQALLDVKNIAHQNKFGEIMP [D22I] | 2.21
YVHHQALLDVKNIAHQNKFGEYMP [D22Y] | 1.74
YVHHQALLDVKNIAHQNKFGEGMP [D22G] | 1.64
YVHHQALLDVKNIAHQNKFGYDMP [E21Y] | 2.15
YVHHQALLDVKNIAHQNKFGSDMP [E21S] | 2.22
YVHHQALLDVKNIAHQNKFGWDMP [E21W] | 2.02

Variant | protein stability index
YVHHQALLDVKNIAHQNKFGRDMP [E21R] | 1.47
YVHHQALLDVKNIAHQNKFGTDMP [E21T] | 2.01
YVHHQALLDVKNIAHQNKFGQDMP [E21Q] | 2.11
YVHHQALLDVKNIAHQNKFGVDMP [E21V] | 1.61
YVHHQALLDVKNIAHQNKFGEDCP [M23C] | 1.95
YVHHQALLDVKNIAHQNKFGEDKP [M23K] | 2.26
YVHHQALLDVKNIAHQNKFGEDLP [M23L] | 1.97
YVHHQALLDVKNIAHQNKFGEDQP [M23Q] | 1.68
YVHHQALLDVKNIAHQNKFGEDRP [M23R] | 1.97
YVHHQALLDVKNIAHQNKFGEDDP [M23D] | 2.17
YVHHQALLDVKNIAHQNKFGEDNP [M23N] | 1.88
YVHHQALLDVKNIAHQNKFGEDSP [M23S] | 2.13
YVHHQALLDVKNIAHQNKFGEDHP [M23H] | 1.93
YVHHQALLDVKNIAHQNKFGEDEP [M23E] | 2.06
YVHHQALLDVKNIAHQNKFGEDYP [M23Y] | 2.14
YVHHQALLDVKNIAHQNKFGEDAP [M23A] | 1.94
YVHHQALLDVKNIAHQNKFGEDTP [M23T] | 2.63
YVHHQALLDVKNIAHQNKFGEDPP [M23P] | 2.18
YVHHQALLDVKNIAHQNKFGEDVP [M23V] | 1.74
YVHHQALLDVKNIAHQNKFGEDIP [M23I] | 2.39
YVHHQALLDVKNIAHQNKFGEDFP [M23F] | 2.23
YVHHQALLDVKNIAHQNKFGEDGP [M23G] | 2.03

Variant | protein stability index
YVHHQALLDVKNIAHQNKFGEDWP [M23W] | 1.49
YVHHQALLDVKNIAHQNKFGEDMT [P24T] | 2.17
YVHHQALLDVKNIAHQNKFGEDMR [P24R] | 1.56
YVHHQALLDVKNIAHQNKFGEDMW [P24W] | 2.05
YVHHQALLDVKNIAHQNKFGEDMH [P24H] | 1.58
YVHHQALLDVKNIAHQNKFGEDMG [P24G] | 2.36
YVHHQALLDVKNIAHQNKFGEDMY [P24Y] | 1.51
YVHHQALLDVKNIAHQNKFGEDMM [P24M] | 1.96
YVHHQALLDVKNIAHQNKFGEDML [P24L] | 2.23
YVHHQALLDVKNIAHQNKFGEDMF [P24F] | 1.49
YVHHQALLDVKNIAHQNKFGEDMK [P24K] | 2.25
YVHHQALLDVKNIAHQNKFGEDMC [P24C] | 1.98
YVHHQALLDVKNIAHQNKFGEDMA [P24A] | 1.46
YVHHQALLDVKNIAHQNKFGEDMS [P24S] | 2.25
YVHHQALLDVKNIAHQNKFGEDMQ [P24Q] | 1.91
YVHHQALLDVKNIAHQNKFGEDMI [P24I] | 2.06
YVHHQALLDVKNIAHQNKFGEDMV [P24V] | 1.57
YVHHQALLDVKNIAHQNKFGEDMD [P24D] | 1.96
YVHHQALLDVKNIAHQNKFGEDME [P24E] | 1.77
YVHHQALLDVKNIAHQNKFGEDMN [P24N] | 2.19

Source: the supplement of paper PMC10567573
